Target: T1, Amino acid residues 98-117 of human TNFR2 (human)
T1 sequence (peptide): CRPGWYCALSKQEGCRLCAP
Assay: ELISA, coated linear peptides 1 µg/well, antibody 0.1 µg/well

B1: agonistic TNFR2 antibody TNFRAG1 (antibody, V domains shown)
VH: EVQLQQFGAELVKPGASVKISCKASGYTFTDYNIDWVKQSHGKSLEWIGDINPNYDSTSYSQKFRGKATLTVDKSSSTAYMELRSLTSEDTAVYYCARGNSWYFDVWGAGTTVTVSS
VL: QIVLTQSPALMSASPGEKVTMTCSASSSVRYMYWYQQKPRSSPKPWIYLTSNLASGVPARFSGSGSGTSYSLTISSMEAEDAATYYCQQWSSNPLTFGAGTKLELK
notes: the primary antibodies were detected with secondary antibodies against rodent IgG; also called monoclonal TNFR2 antibody TNFRAG1; TNFR2 agonist antibody
B1 gave an Affinity of 1 and a Reading of 0.
